Patent US20040147006, “Peptides that bind to DNA and inhibit DNA replication, and methods of use” (published 2004)
Where no end group is shown, it is not given here. [ ]: non-standard residue; d: D form. pT = C[C@@H](OP(=O)(O)O)[C@H](N)C(=O)O

Key:
[1] = target: T1, T-ag peptide 2(9), unphosphorylated (Simian virus 40); assay: filter; background at 0.5-2 mM; EMSA at 2 mM negative; conditions: protein: synthetic; tags: synthetic peptide; label: 5'-32P
T1 chain: SQHSTPPKK

[2] = target: T2, T-ag peptide 1(9), phospho-Thr124 (Simian virus 40); assay: as above; conditions: protein: synthetic; tags: synthetic peptide, phosphorylated Thr124; label: 5'-32P
T2 chain: SQHS[pT]PPKK

[3] = target: SV40 large T antigen (full length) (Simian virus 40, UniProt P03070 P03070:1-708); assay: EMSA; hexamers and double hexamers; 7 mM MgCl2, AMP-PNP, 37 C, glutaraldehyde; conditions: label: 5'-32P
[4] = target: T3, T-ag peptide T-2(17), unphosphorylated (Simian virus 40, UniProt P03070); assay: filter; significant at 0.5 mM, saturated at 1-2 mM; higher affinity than 13-mer; conditions: protein: synthetic; tags: synthetic peptide; label: 5'-32P
T3 chain: ATADSQHSTPPKKKRKV

[5] = target: T4, E1 peptide E1-P2(25), BP-E1, unphosphorylated (Bovine papillomavirus, UniProt P03116 SEQ:1-25); assay: filter; binds at 0.25 mM, better than T-2(17); EMSA works without glutaraldehyde; conditions: protein: synthetic; tags: synthetic peptide; label: 5'-32P
T4 chain: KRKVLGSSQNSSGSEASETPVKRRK

B1: 64-bp SV40 core origin (dsDNA)
DNA 1: TAATTTTTTTTATTTATGCAGAGGCCGAGGCCGCCTCGGCCTCTGAGCTATTCCAGAAGTAGTG
DNA 2: CACTACTTCTGGAATAGCTCAGAGGCCGAGGCGGCCTCGGCCTCTGCATAAATAAAAAAAATTA
- binding result [1]: no binding
- binding result [2]: no binding
- binding result [3]: binds
- binding result [4]: binds
- binding result [5]: binds
